{"source": "patent US20080050763A1", "about": "(INSTITUT PASTEUR, published 2008)", "binders": {"B1": {"name": "NEMO (NF-κB essential modulator), endogenous, in Rat-1 cell extracts (other, UniProt Q6TMG5 1-412, looked up)", "chain": "MSRHLWKNQLSEMVQPSGGPAEDQDMLGEESSLGKPAMLHLPSEQGTPETLQRCLEENQELRDAIRQSNQMLRERCEELLHFQVSQREEKEFLMCKFQEARKLVERLSLEKLDLRRQREQALEDLEHLKKCQQQMAEDKASVKAQVTSLLGELQESQSRLEAATKERQTLEGRIRAVSEQVRQLESEREVLQQQHSVQVDQLRMQNQSVEAALRMERQAASEEKRKLAQLQAAYHQLFQDYDSHIKSSKGMQLEDLRQQLQQAEEALVAKQELIDKLKEEAEQHKIVMETVPVLKAQADIYKADFQAERHAREKLVERKELLQEQLEQLQREFNKLKVGCHESARIEDMRKRHVETSQPPLLPAPAHHSFHLALSNQRRSPPEEPPDFCCPKCQYQAPDMDTLQIHVMECIE", "notes": "Endogenous protein of a cell extract; also called IKK gamma"}}, "target": "T1, IKKβ, endogenous, in Rat-1 and 5R cell extracts (rat (from the cell line Rat-1; not …, UniProt Q9QY78 1-757)", "T1 construct": "Endogenous protein of a cell extract; also called IKK-beta", "T1 sequence (looked up)": "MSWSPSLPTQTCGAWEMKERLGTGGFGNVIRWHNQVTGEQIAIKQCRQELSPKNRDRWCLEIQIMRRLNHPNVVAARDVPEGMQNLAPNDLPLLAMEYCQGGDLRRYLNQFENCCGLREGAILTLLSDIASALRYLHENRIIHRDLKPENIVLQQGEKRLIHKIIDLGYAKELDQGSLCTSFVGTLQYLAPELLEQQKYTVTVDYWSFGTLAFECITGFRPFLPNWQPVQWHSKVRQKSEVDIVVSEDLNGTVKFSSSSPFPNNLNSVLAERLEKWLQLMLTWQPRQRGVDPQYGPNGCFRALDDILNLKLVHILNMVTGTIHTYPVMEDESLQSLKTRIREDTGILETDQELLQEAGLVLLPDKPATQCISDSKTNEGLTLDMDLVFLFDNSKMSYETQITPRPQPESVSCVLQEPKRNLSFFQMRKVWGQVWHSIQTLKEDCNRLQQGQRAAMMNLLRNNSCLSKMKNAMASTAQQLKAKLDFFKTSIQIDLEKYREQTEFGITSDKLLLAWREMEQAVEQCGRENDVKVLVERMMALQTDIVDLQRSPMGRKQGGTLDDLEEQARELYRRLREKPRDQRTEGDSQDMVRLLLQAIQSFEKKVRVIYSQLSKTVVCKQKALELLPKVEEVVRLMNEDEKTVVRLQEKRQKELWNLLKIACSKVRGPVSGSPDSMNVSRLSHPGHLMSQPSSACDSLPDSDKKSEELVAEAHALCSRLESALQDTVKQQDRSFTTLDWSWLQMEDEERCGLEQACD", "test": "glycerol gradient ultracentrifugation of cell extracts, co-migration", "experimental": "Fractions (160 μl) were collected using the Piston Gradient Fractionator (Biocomp, Serlabo) and their absorbance at 280 nm was measured. To calibrate the gradient, standard proteins were applied to glycerol gradient and in parallel. The reproducibility of each glycerol gradient was also checked by measuring in each fraction the enzymatic activity of an endogenous marker, NDP kinase (110 kDa)."}
{"binder": "B1", "values": [{"measurement": "binding result", "result": "binds"}]}
